Our source for the stoichiometry N values is paper PMC4877045.

As a reminder, the stoichiometry N is a count of units in the complex or per binding partner.

In the assay the target is cleaved human TNFα (human). As to the kind of experiment: SEC; SEC-HPLC on an analytic TSK G3000SWXL column, PBS mobile phase, 1 ml/min, OD280; molecular weight estimated from retention time against a protein size standard; self-association (trimer).

As for cleaved human TNFα (ligand), the stoichiometry N is 3.
